Laboratory results taken from publication PMC8924211 (Nature Communications, 2022).
Where “and” joins values, the source holds several entries; their conditions need not be identical. Equal entries are not always repeated. Each block holds one molecule with its values, some of them ahead of it.

Tests used:
[1] = target: SNAP-GAL2R (wild type) (human) (UniProt O43603)
[2] = target: SNAP-GAL2R (wild type) (human) (UniProt O43603); remark: listed apart in the source
[3] = target: SNAP-GAL2R (wild type) (human) (UniProt O43603); experiment: AlphaScreen or HTRF; competition: HEK293 cells with SNAP-GAL1R or SNAP-GAL2R labelled with SNAP-Lumi4-Tb; 50 nM galanin-A2 with increasing concentrations of unlabeled ligand, 1 h at room temperature; Ki by the Cheng-Prusoff equation
[4] = target: SNAP-GAL1R (wild type) (human) (UniProt P47211)
[5] = target: SNAP-GAL1R (wild type) (human) (UniProt P47211); experiment: AlphaScreen or HTRF; competition: HEK293 cells with SNAP-GAL1R or SNAP-GAL2R labelled with SNAP-Lumi4-Tb; 50 nM galanin-A2 with increasing concentrations of unlabeled ligand, 1 h at room temperature; Ki by the Cheng-Prusoff equation
GAL2R over GAL1R = conditions: cited from earlier work
Text: In contrast, L^4P contacts with equivalent ECL2 residues with weaker hydrophobicity (L169^ECL2, A170^ECL2, and L172^ECL2) in GAL2R (Fig. 3e, Supplementary Fig. 4b). The structural observation is coincident with our peptide truncation assay.

[6] = target: SNAP-GAL2R (wild type) (human) (UniProt O43603); remark: listed apart in the source
[7] = target: T1, N-terminal-SNAP-tagged GAL1R, wild type (human, UniProt P47211 1-349, Lumi4-Tb on the SNAP tag); experiment: AlphaScreen or HTRF; competition binding: HEK293 cells transfected with WT SNAP-tagged receptor and labelled with SNAP-Lumi4-Tb, incubated with 50 nM galanin-A2 and increasing concentrations of the unlabeled ligand, 1 h at room temperature; Ki from IC50 by the Cheng-Prusoff equation; conditions: one partner purified
T1 construct: also called SNAP-GAL1R; GAL1R WT; source: HEK293, transfected, on cells; not shown: SNAP tag, N-terminal, kept
T1 sequence (looked up): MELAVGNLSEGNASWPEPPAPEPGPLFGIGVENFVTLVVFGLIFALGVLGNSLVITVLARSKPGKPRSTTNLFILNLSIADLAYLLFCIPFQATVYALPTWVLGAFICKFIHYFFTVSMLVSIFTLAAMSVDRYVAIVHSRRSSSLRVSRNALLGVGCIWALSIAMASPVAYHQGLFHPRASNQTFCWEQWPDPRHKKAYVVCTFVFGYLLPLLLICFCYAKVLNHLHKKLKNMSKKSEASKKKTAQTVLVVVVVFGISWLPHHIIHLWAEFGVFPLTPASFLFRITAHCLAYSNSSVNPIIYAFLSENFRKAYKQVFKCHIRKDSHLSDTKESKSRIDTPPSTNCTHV

[8] = target: T2, N-terminal-SNAP-tagged GAL2R, wild type (human, UniProt O43603 1-387, Lumi4-Tb on the SNAP tag); experiment: as above; conditions: one partner purified
T2 construct: also called SNAP-GAL2R; GAL2R WT; source: HEK293, transfected, on cells; not shown: SNAP tag, N-terminal, kept
T2 sequence (looked up): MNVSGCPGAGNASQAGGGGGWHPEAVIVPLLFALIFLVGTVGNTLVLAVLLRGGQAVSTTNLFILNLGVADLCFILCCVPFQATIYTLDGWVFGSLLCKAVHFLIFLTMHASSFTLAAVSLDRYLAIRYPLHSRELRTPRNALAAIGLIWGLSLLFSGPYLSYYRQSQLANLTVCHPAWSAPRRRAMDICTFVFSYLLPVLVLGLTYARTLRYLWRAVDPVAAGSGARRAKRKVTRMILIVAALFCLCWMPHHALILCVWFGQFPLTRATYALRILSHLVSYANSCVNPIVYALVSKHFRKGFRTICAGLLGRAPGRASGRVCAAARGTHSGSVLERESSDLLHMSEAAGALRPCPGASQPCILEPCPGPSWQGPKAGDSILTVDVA

Molecule: galanin (full length, unlabeled) (peptide)
- calcium assay EC50 (galanin; HEK293/Gα16 cells) [1]: 35.3 nM and 27.2 nM and 64.9 nM
- calcium assay EC50 (peptide on WT receptor; HEK293/Gα16 cells) [2]: 8.27 nM and 11.6 nM

- calcium assay EC50 (peptide on WT receptor; HEK293/Gα16 cells) [2]: 23.5 nM and 12.5 nM and 12.6 nM
- Ki [3]: 20.1 nM and 22.6 nM and 15.6 nM
Molecule: galanin (1-16) (peptide)

- calcium assay EC50 (peptide on WT receptor; HEK293/Gα16 cells) [4]: > 10000 nM
- calcium assay EC50 (peptide on WT receptor; HEK293/Gα16 cells) [2]: > 10000 nM
- Ki [5]: 2880 nM and 2850 nM and 1690 nM
- Ki [3]: > 100000 nM
Molecule: galanin (1-16, Y9A) (peptide)

Molecule: GALP (1–60): galanin-related peptide, galanin homologue; amino acids 9–21 identical to first 13 amino acids of galanin (APAHRGRGGWTLNSAGYLLGPVLHLPQMGDQDGKRETALEILDLWKAIDGLPYSHPPQPS; Galanin-like peptide; UniProt Q9UBC7 25-84, looked up)
- affinity for GAL2R versus GAL1R (GAL2R over GAL1R): higher affinity for GAL2R over GAL1R

- calcium assay EC50 (peptide on WT receptor; HEK293/Gα16 cells) [4]: 3160 nM and 3440 nM and 3340 nM
- calcium assay EC50 (peptide on WT receptor; HEK293/Gα16 cells) [2]: 50.1 nM and 12.3 nM
- Ki [5]: > 10000 nM
- Ki [3]: 80.1 nM and 42.6 nM and 27 nM
Molecule: G1-truncated galanin (2-16) (peptide)

Molecule: spexin (mature, 14 amino acids) (peptide)
- calcium assay EC50 (spexin) [6]: 327 nM and 178 nM and 81.4 nM

- calcium assay EC50 (peptide on WT receptor; HEK293/Gα16 cells) [4]: 324 nM and 328 nM and 268 nM
- calcium assay EC50 (peptide on WT receptor; HEK293/Gα16 cells) [2]: 12.8 nM and 14.6 nM and 69 nM
- Ki [5]: 343 nM and 409 nM and 314 nM
- Ki [3]: 41.4 nM and 11.1 nM and 17.8 nM
Molecule: galanin (1-13) (peptide)

Molecule: ARM1896: galanin segment 2-11 (WTLNSAGYLL; Galanin; UniProt P22466 34-43, looked up, fragment)
- selectivity for GAL1R (GAL2R over GAL1R): low selectivity

B1: Gal (1-13) (peptide)
peptide: GWTLNSAGYLLGP
notes: numbers count on: the mature protein
- Ki [7]: 356 nM
- Ki [8]: 23.5 nM

B2: Gal (1-16, Y9A) (peptide)
peptide: GWTLNSAGALLGPHAV
notes: as for B1
- Ki [7]: 2480 nM
- Ki [8]: > 100000 nM

B3: Gal (2-16) (peptide)
peptide: WTLNSAGYLLGPHAV
notes: as for B1
- Ki [7]: > 10000 nM
- Ki [8]: 49.9 nM
